Experimental data published in article PMC9720079, “Identification and Characterization of a Bacteriocin from the Newly Isolated Bacillus subtilis HD15 with Inhibitory Effects against Bacillus cereus” (Journal of Microbiology and Biotechnology, 2022).
Ends that are not written are not given here.

Columns and labels:
B. cereus = assay: Antimicrobial activity in arbitrary units, serial 2-fold dilutions, of purification steps; format: cell-based, Bacillus cereus
Protocol: The protein content in the bacteriocin solution was measured using the modified Lowry method. A 50 μl volume of bacteriocin was mixed with 550 μl of biuret reagent (0.75 mM cupric sulfate and 94 mM sodium hydroxide) and incubated for 10 min at 25°C. A 25 μl volume of Folin–Ciocalteu’s phenol reagent (Sigma-Aldrich, USA) was then added, followed by incubation for 30 min at 25°C. Absorbance was measured at 725 nm using a VersaMax ELISA Microplate Reader (Molecular Devices, USA), and a standard curve was constructed using bovine serum albumin (Sigma-Aldrich). Antimicrobial activity was measured as arbitrary units per milliliter of purified microbial culture using serial 2-fold dilutions of the antimicrobial substance. […] AU/mL was calculated by multiplying AU by the dilution factor.

gram-negative bacteria = assay: Inhibitory spectrum, well diffusion method, gram-negative bacteria as a group; format: cell-based
Protocol: (§1) Antimicrobial activity against several gram-positive and gram-negative bacteria was assessed using the agar well diffusion method, with some modifications. Cultures were incubated in tryptic soy medium at 37°C for 60 h. Cell-free supernatants were prepared by centrifugation (3,800 ×g, 4°C, 30 min) and used as an antagonistic substance. Each pathogen at 7.0 log CFU/ml was spread on a TSA plate. An 8-mm-diameter well was created using a cork borer on the agar plate, and 50 μl of the cell-free supernatant was added to the wells. The plates were left undisturbed for a few hours to allow the supernatant to diffuse into the agar and then cultured at 37°C for 18 h. The diameter of the resultant growth inhibition zone was measured as a measure of antimicrobial activity.

[1] = Temperature stability of bacteriocin, relative antimicrobial activity; format: physicochemical; conditions: for temperature range of stable activity: 12 h incubation; for Relative activity (%): 12 h, read-out agar well diffusion
Protocol: (§2) To evaluate the pH stability of the antimicrobial substance, the buffers were prepared with 0.1 M glycine-HCl buffer (pH between 2 and 4), 0.1 M sodium acetate buffer (pH between 4 and 6), 0.1 M sodium phosphate buffer (pH between 6 and 8), and 0.1 M Tris-HCl buffer (pH between 8 and 10). The antimicrobial substance was mixed with buffer at a ratio of 1:15 and incubated at 37°C for 12 h, and relative antimicrobial activity was measured. To evaluate temperature stability, purified bacteriocin was incubated at 0°C, 20°C, 40°C, 60°C, 70°C, 80°C, or 90°C for 12 h, and at 100°C for 1 h. Relative antimicrobial activity was assessed using the agar well diffusion method, and the zone of inhibition was measured in millimeters. To assess the effect of various enzymes on antimicrobial activity, lysozyme (E.C. 3.2.1.17), α-amylase (E.C. 3.2.1.1), lipase (E.C. 3.1.1.3), protease (E.C. 3.4.24.31), and proteinase K (E.C. 3.4.21.64) (all from Sigma-Aldrich) and pronase E (E.C. 3.4.24.4; Merck Millipore, USA) were prepared in sodium phosphate buffer (pH 7.0) at a final concentration of 4 mg/ml. Purified bacteriocin was mixed with each enzyme at 2 mg/ml and incubated at 37°C for 30 min, and the relative antimicrobial activity was measured.

lipase (E.C. 3.1.1.3) = assay: Effect of enzyme treatment on antimicrobial activity; format: in vitro ADME; conditions: 30 min
Protocol: as §2

[2] = target: T1, proteinase K (E.C. 3.4.21.64) (Parengyodontium album, UniProt P06873); assay: as above; format: in vitro ADME; conditions: 30 min; for effect of proteinase K treatment on antimicrobial activity: 2 mg/ml, pH 7.0, 37°C
T1 construct: purchased Sigma-Aldrich
Protocol: as §2

α-amylase (E.C. 3.2.1.1) = assay: as above; format: in vitro ADME; conditions: 2 mg/ml, pH 7.0, 37°C, 30 min
Protocol: as §2

[3] = tested on: Listeria monocytogenes ATCC 15313; assay: Inhibitory spectrum, well diffusion method; format: cell-based; conditions: for antimicrobial activity against L. monocytogenes: well diffusion method
Protocol: as §1

[4] = tested on: Bacillus cereus KCCM 40152; assay: Inhibitory spectrum, well diffusion method; format: cell-based; conditions: for antimicrobial activity against B. cereus: well diffusion method
Protocol: as §1

[5] = tested on: Bacillus cereus KCCM 12667; assay: Agar well diffusion test of purified bacteriocin; format: cell-based; conditions: Fig. 3C
Protocol: as §1
The molecular weight of bacteriocin was determined by tricine sodium dodecyl sulfate-polyacrylamide gel electrophoresis (SDS-PAGE; Bio-Rad, USA) at 100 V for 5 h on a 20% polyacrylamide gel with an ultra-low-range molecular weight marker (1,060–26,600 Da; Sigma-Aldrich), followed by silver staining (Amersham Biosciences, Sweden). Direct detection was then performed to determine whether the protein bands corresponded to bacteriocin [23].

[6] = tested on: Staphylococcus aureus ATCC 25923; assay: Inhibitory spectrum, well diffusion method; format: cell-based; design: key to Antibacterial activity: +++: Greater than 15 mm; −: no inhibition zone
Protocol: as §1

[7] = tested on: Salmonella enteritidis CCARM 8206; assay: Inhibitory spectrum, well diffusion method; format: cell-based; design: key: +++: Greater than 15 mm; −: no inhibition zone; conditions: inhibition zone class
Protocol: as §1

[8] = tested on: Shigella flexneri KCCM 11937; assay: Inhibitory spectrum, well diffusion method; format: cell-based; design: key: +++: Greater than 15 mm; −: no inhibition zone; conditions: inhibition zone class
Protocol: as §1

[9] = tested on: Vibrio vulnificus ATCC 29306; assay: Inhibitory spectrum, well diffusion method; format: cell-based; design: key: +++: Greater than 15 mm; −: no inhibition zone; conditions: inhibition zone class
Protocol: as §1

[10] = tested on: Vibrio parahaemolyticus KCCM 11965; assay: Inhibitory spectrum, well diffusion method; format: cell-based; design: key: +++: Greater than 15 mm; −: no inhibition zone; conditions: inhibition zone class
Protocol: as §1

[11] = tested on: Escherichia coli O157:H7 ATCC 43894; assay: Inhibitory spectrum, well diffusion method; format: cell-based; design: key: +++: Greater than 15 mm; −: no inhibition zone; conditions: inhibition zone class
Protocol: as §1

[12] = tested on: Pseudomonas aeruginosa KCCM 12539; assay: Inhibitory spectrum, well diffusion method; format: cell-based; design: key: +++: Greater than 15 mm; −: no inhibition zone; conditions: inhibition zone class
Protocol: as §1

[13] = tested on: Cronobacter sakazakii KCTC2949; assay: Inhibitory spectrum, well diffusion method; format: cell-based; design: key: +++: Greater than 15 mm; −: no inhibition zone; conditions: inhibition zone class
Protocol: as §1

[14] = tested on: Salmonella choleraesuis KCCM 40736; assay: Inhibitory spectrum, well diffusion method; format: cell-based; design: key: +++: Greater than 15 mm; −: no inhibition zone; conditions: inhibition zone class
Protocol: as §1

[15] = tested on: Shigella sonnei KCCM 41282; assay: Inhibitory spectrum, well diffusion method; format: cell-based; design: key: +++: Greater than 15 mm; −: no inhibition zone; conditions: inhibition zone class
Protocol: as §1

[16] = pH stability of bacteriocin, relative antimicrobial activity; format: physicochemical; conditions: 12 h; for Relative activity (%): substance:buffer 1:15, 37°C, read-out agar well diffusion
Protocol: as §2

[17] = listed as purified protein from B. subtilis HD15
[18] = listed as B. subtilis HD15 bacteriocin
[19] = well diffusion, inhibition zone class

T1 sequence (P06873 106-384): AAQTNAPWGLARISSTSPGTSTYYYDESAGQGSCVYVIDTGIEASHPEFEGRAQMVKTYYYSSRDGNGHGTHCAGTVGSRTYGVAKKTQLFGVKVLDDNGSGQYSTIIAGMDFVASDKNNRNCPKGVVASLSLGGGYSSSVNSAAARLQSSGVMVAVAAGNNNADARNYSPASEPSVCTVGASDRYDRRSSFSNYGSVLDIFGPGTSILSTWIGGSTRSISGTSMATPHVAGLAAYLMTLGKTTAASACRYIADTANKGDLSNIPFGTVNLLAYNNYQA

For “SIGACLVDGPIPVIEG [bacteriocin from Bacillus subtilis HD15, 3.6 kDa bacteriocin related to subtilosin A, purified from B. subtilis HD15 culture by ammonium sulfate, DEAE-Sepharose and Sephacryl steps]”, the “Total activity (AU)” value (B. cereus; purification step from 500 ml culture, reciprocal of maximum 2-fold dilution giving a transparent zone, indicator strain not given) was 10,500 AU, the “Specific activity (AU/mg)” value (B. cereus; total activity per total protein (modified Lowry) of purification step) was 413.4 AU/mg and the “antimicrobial activity against gram-negative bacteria” value (gram-negative bacteria) was “no activity”. For the same sequence, the “antimicrobial activity after incubation” value ([1]; 0–50°C for 12 h) was 100%, the “temperature range of stable activity” value [1] was “up to 70 °C” and the “temperature range of stable activity” value [1, 17] was 0–70 °C. For the same sequence, the activity remaining ([1]; after 12 h at 70°C and over a pH range between 3 and 9) was “more than 70%”, the “Relative activity (%)” value ([1]; heat 50°C) was 100% and the “Relative activity (%)” value ([1]; heat 60°C) was 95%. For the same sequence, the “Relative activity (%)” value ([1]; heat 70°C) was 70%, the “Relative activity (%)” value ([1]; heat 80°C) was 20% and the “Relative activity (%)” value ([1]; heat 90°C) was 0%. For the same sequence, the “effect of lipase treatment on antibacterial activity” value (lipase (E.C. 3.1.1.3); 2 mg/ml, pH 7.0, 37°C) was “no effect”, the “Relative activity (%)” value (lipase (E.C. 3.1.1.3); lipase 2 mg/ml, sodium phosphate buffer pH 7.0, 37°C, read-out relative antimicrobial activity) was 100% and the “effect of proteinase K treatment on antimicrobial activity” value [2] was “lost”. For the same sequence, the “effect of proteinase K treatment on antimicrobial activity” value [2, 17] was “completely inhibited”, the “Relative activity (%)” value ([2]; proteinase K 2 mg/ml, sodium phosphate buffer pH 7.0, 37°C, read-out relative antimicrobial activity) was 0% and the “effect of amylase treatment on antibacterial activity” value (α-amylase (E.C. 3.2.1.1)) was “no effect”. The “antimicrobial activity against L. monocytogenes” value [3, 18] was “strong inhibition”, the “antimicrobial activity against L. monocytogenes” value [3, 17] was “high antimicrobial activity” and the Antibacterial activity [3, 19] was “+++ (Greater than 15 mm)”. The “antimicrobial activity against B. cereus” value [4, 18] was “strong inhibition”, the “antimicrobial activity against B. cereus” value [4, 17] was “high antimicrobial activity” and the Antibacterial activity [4, 19] was “+++ (Greater than 15 mm)”. The “Antibacterial activity, zone around purified bacteriocin” value [5] was “clear zone”, the “antimicrobial activity against Staphylococcus aureus” value ([6]; well diffusion method) was “no activity” and the Antibacterial activity [6, 19] was “−”. The Antibacterial activity [7] was “−”, the Antibacterial activity [8] was “−” and the Antibacterial activity [9] was “−”. For the same sequence, the Antibacterial activity [10] was “−”, the Antibacterial activity [11] was “−” and the Antibacterial activity [12] was “−”. The Antibacterial activity [13] was “−”, the Antibacterial activity [14] was “−” and the Antibacterial activity [15] was “−”. For the same sequence, the “Relative activity (%)” value ([16]; pH 2, 0.1 M glycine-HCl buffer) was 50%, the “Relative activity (%)” value ([16]; pH 3, 0.1 M glycine-HCl buffer) was 80% and the antimicrobial activity remaining ([16]; pH 3 to 9 as worded in text, 37°C) was 80%. The “Relative activity (%)” value ([16]; pH 4, 0.1 M glycine-HCl or sodium acetate buffer) was 95%, the “Relative activity (%)” value ([16]; pH 5, 0.1 M sodium acetate buffer) was 100% and the antimicrobial activity maintained ([16]; pH 5–7, 37°C) was 100%. For the same sequence, the “Relative activity (%)” value ([16]; pH 6, 0.1 M sodium acetate or sodium phosphate buffer) was 100%, the “Relative activity (%)” value ([16]; pH 7, 0.1 M sodium phosphate buffer) was 100% and the “Relative activity (%)” value ([16]; pH 8, 0.1 M sodium phosphate or Tris-HCl buffer) was 95%. The “Relative activity (%)” value ([16]; pH 9, 0.1 M Tris-HCl buffer) was 80% and the “Relative activity (%)” value ([16]; pH 10, 0.1 M Tris-HCl buffer) was 30%.
